Here are results for six molecules from patent US20200262930A1 (YALE UNIVERSITY, published 2020).

The target of assay [1] is T1, primate (Cynomolgus monkey) CHI3L1/YKL-40 (Cynomolgus monkey, UniProt A0A7N9DGM0 12-373).
T1 construct: also called primate CHI3L1/YKL-40
Briefly: titration ELISA. For orientation: ELISA stands for enzyme-linked immunosorbent assay.

In assay [2] the target is T2, murine BRP-39 (murine homologue of CHI3L1/YKL-40) (murine, UniProt Q61362 30-389, limits assumed).
T2 construct: also called murine YKL-40
Briefly: titration ELISA.

The target in another assay is T3, human CHI3L1/YKL-40 (human, UniProt P36222 22-383).
T3 construct: also called human YKL-40
Briefly: titration ELISA against human YKL-40.

In assay [3] the target is T2, murine BRP-39 (murine homologue of …). Briefly: titration ELISA against murine BRP-39.

T3 sequence (P36222 22-383 limits assumed): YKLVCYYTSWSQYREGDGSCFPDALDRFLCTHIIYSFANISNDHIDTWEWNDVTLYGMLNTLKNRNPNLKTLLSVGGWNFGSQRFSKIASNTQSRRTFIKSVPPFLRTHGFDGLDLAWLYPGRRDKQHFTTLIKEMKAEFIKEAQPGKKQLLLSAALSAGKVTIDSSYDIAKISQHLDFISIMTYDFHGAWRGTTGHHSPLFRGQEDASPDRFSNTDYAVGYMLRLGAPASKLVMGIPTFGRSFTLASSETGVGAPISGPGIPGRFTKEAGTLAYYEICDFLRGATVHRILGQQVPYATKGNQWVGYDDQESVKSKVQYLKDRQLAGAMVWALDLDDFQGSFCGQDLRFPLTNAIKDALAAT
T2 sequence (Q61362 30-389 limits assumed): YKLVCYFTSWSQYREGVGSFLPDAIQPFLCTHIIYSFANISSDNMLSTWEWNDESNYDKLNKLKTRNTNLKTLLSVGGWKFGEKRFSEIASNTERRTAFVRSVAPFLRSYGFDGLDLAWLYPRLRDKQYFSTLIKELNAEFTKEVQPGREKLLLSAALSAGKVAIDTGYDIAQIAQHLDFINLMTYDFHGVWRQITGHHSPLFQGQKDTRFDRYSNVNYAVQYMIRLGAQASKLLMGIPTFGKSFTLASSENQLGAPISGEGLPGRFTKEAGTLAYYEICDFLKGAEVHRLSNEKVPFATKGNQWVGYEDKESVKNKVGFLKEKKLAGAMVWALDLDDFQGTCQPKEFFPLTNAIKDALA

B1: H1-L1 (humanized anti-YKL-40 antibody) (antibody, V domains shown)
VH: QIQLVQSGSELKKPGASVKISCKASGYTFTNYGMNWVRQAPGQGLEWMGWINTYTGEPTYADDFKGRFVFSLDTSVSTAYLQISSLKAEDTSVYFCARLGYGKFYVMDYWGQGTSVTVSS
VL: DVVMTQSPLSLPVTLGQPASISCRSSQSLVHSNGNTYLNWYQQRPGQSPRLLIYKVSNRFSGVPDRFSGSGSGTDFTLKISRVEAEDVGVYFCSQSTHVTWTFGGGTKLEIK
notes: Humanized, kappa light chain, human IgG (detected with goat anti-human IgG-HRP; the PK assay uses an anti-IgG1 capture antibody); also called anti-YKL-40 H1-L1
Consider B1, for which the “fold difference in affinity among species (human highest)” value (shortened to “fold difference”) in assay [1] and in assay [2] was no more than 2 fold each time. Besides, the binding result in the assay with human CHI3L1/YKL-40 is on record as “binds”.

B2: H11-L5 (humanized anti-YKL-40 antibody) (antibody, V domains shown)
VH: QIQLVQSGPEVKQPGASVKISCKASGYTFTNYGMNWVKQAPGQGLKWMGWINTYTGEPTYAQGFTGRFVFSLDTSASTAYLQISSLKAEDMSTYFCARLGYGKFYVMDYWGQGTSVTVSS
VL: DIVMTQTPLSLSVTPGQPASISCKSSQSLVHSNGNTYLHWYLQKPGQSPQLLIYKVSNRFSGVPDRFSGSGSGTDFTLKISRVEAEDVGVYYCSQSTHVTWTFGGGTKLEIK
notes: Humanized variant
As to B2, the binding result (with human CHI3L1/YKL-40; in assay [3]) was “binds” each time.

B3: H4-L1 (humanized anti-YKL-40 antibody) (antibody, V domains shown)
VH: QIQLVQSGSELKKPGASVKISCKASGYTFTNYGMNWVRQAPGQGLKWMGWINTYTGEPTYADDFKGRFVFSLDTSVSTAYLQISSLKAEDTSVYFCARLGYGKFYVMDYWGQGTSVTVSS
VL: DVVMTQSPLSLPVTLGQPASISCRSSQSLVHSNGNTYLNWYQQRPGQSPRLLIYKVSNRFSGVPDRFSGSGSGTDFTLKISRVEAEDVGVYFCSQSTHVTWTFGGGTKLEIK
notes: Humanized, human IgG (detected with goat anti-human IgG-HRP)
On to B3, for which the “fold difference” value in assay [1] and in assay [2] was no more than 2 fold in each case. Also, the binding result with human CHI3L1/YKL-40 is “binds”.

B4: H2-L1 (humanized anti-YKL-40 antibody) (antibody, V domains shown)
VH: QIQLVQSGSELKKPGASVKISCKASGYTFTNYGMNWVRQAPGQGLEWMGWINTYTGEPTYAQGFTGRFVFSLDTSVSTAYLQISSLKAEDTSVYFCARLGYGKFYVMDYWGQGTSVTVSS
VL: DVVMTQSPLSLPVTLGQPASISCRSSQSLVHSNGNTYLNWYQQRPGQSPRLLIYKVSNRFSGVPDRFSGSGSGTDFTLKISRVEAEDVGVYFCSQSTHVTWTFGGGTKLEIK
notes: Humanized variant
On to B4, for which the binding result (with human CHI3L1/YKL-40; in assay [3]) was “binds” throughout.

B5: H11-L1 (humanized anti-YKL-40 antibody) (antibody, V domains shown)
VH: QIQLVQSGPEVKQPGASVKISCKASGYTFTNYGMNWVKQAPGQGLKWMGWINTYTGEPTYAQGFTGRFVFSLDTSASTAYLQISSLKAEDMSTYFCARLGYGKFYVMDYWGQGTSVTVSS
VL: DVVMTQSPLSLPVTLGQPASISCRSSQSLVHSNGNTYLNWYQQRPGQSPRLLIYKVSNRFSGVPDRFSGSGSGTDFTLKISRVEAEDVGVYFCSQSTHVTWTFGGGTKLEIK
notes: Humanized, human IgG
For the molecule B5, the “fold difference” value in assay [1] and in assay [2] was no more than 2 fold in each case. Moreover, the binding result in the assay with human CHI3L1/YKL-40 is on record as “binds”.

B6: H12-L8 (humanized anti-YKL-40 antibody) (antibody, V domains shown)
VH: QIQLVQSGPEVKQPGASVKISCKASGYSFTTYGMNWVKQAPGQGLEWMGWINTYTGEPTYADDFKGRFVFSLDTSASTAYLQISSLKAEDMSTYFCARLGYGKFYVMDYWGQGTSVTVSS
VL: DVVMTQSPLSLPVTLGQPASISCRSSQSLVHSNGNTYLHWYQQRPGQSPRLLIYKVSNRFSGVPDRFSGSGSGTDFTLKISRVEAEDVGVYYCSQSTHVTWTFGGGTKLEIK
notes: Humanized variant
For the molecule B6, the binding result (with human CHI3L1/YKL-40; in assay [3]) was “binds” in each case.
